From patent US20160200782A1 (MOERAE MATRIX, published 2016) come the findings set out here.

Some targets named below: Lck(h) activated (human, UniProt P06239 1-509, limits assumed); MSK2(h) (human, UniProt O75676 1-772, limits assumed); Ab1(Y253F)(h) (human, UniProt P00519 27-1130, limits assumed); EphA7(h) (human, UniProt Q15375 577-998, limits assumed); Syk(h) (human, UniProt P43405 1-635, limits assumed); CDK6/cyclinD3(h) (human, UniProt Q00534 1-326; P30281 1-292); ROCK-II(h) (human, UniProt O75116 11-552); MSSK1(h) (human, UniProt Q9UPE1 1-567, limits assumed); MELK(h) (human, UniProt Q14680 1-340, limits assumed).

Holding throughout (assay): cell-based or functional assay
The target in a further test is T1, PRAK(h) (human, UniProt Q8IW41 1-473, limits assumed).
T1 sequence (looked up): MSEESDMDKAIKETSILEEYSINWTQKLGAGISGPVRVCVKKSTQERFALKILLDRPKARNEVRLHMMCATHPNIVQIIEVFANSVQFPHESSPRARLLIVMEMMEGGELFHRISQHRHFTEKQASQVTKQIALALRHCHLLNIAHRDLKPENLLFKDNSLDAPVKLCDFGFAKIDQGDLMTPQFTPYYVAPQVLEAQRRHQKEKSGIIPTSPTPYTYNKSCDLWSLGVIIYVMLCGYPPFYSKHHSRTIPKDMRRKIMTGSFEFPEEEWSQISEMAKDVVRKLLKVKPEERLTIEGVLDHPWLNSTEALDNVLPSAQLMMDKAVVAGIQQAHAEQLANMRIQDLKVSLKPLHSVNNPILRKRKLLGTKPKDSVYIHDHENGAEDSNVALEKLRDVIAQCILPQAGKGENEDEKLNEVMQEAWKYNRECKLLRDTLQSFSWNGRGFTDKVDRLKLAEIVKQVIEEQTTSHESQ

Another test addresses T2, DCAMKL2(h) (human, UniProt Q8N568 372-766, limits assumed).
T2 sequence (looked up): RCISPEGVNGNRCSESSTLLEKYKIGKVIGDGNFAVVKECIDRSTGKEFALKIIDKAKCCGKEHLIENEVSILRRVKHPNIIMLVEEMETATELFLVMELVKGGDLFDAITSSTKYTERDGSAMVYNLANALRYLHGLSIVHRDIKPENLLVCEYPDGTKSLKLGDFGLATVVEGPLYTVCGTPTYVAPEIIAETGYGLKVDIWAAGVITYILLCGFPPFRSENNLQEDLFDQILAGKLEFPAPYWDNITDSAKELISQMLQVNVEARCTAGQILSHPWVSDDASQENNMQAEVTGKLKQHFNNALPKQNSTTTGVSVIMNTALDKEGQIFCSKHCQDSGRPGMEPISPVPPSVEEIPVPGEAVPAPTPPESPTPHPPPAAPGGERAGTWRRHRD

For another test, the target named is T3, BrSK2(h) (human, UniProt Q8IWQ3 1-736, limits assumed).
T3 sequence (looked up): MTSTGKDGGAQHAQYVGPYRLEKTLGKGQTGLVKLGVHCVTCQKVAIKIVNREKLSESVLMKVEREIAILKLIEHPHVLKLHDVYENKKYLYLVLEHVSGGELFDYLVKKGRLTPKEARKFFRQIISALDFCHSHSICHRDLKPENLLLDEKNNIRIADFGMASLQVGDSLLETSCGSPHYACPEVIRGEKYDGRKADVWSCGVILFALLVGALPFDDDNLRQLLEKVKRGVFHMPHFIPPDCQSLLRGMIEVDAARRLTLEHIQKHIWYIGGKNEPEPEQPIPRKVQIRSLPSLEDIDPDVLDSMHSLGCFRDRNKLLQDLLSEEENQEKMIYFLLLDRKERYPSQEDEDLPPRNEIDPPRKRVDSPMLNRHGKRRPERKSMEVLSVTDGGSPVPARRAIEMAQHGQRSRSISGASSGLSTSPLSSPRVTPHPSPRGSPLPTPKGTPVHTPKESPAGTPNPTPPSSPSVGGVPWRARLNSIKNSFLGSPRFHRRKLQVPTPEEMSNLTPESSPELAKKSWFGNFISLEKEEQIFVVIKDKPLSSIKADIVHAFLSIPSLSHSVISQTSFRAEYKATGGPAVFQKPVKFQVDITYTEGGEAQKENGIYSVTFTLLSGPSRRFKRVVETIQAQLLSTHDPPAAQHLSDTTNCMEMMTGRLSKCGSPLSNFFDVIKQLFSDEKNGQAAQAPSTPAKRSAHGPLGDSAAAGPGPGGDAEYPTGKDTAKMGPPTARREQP

The target in a further test is T4, Flt1(h) (human, UniProt P17948 781-1338, limits assumed).
T4 sequence (looked up): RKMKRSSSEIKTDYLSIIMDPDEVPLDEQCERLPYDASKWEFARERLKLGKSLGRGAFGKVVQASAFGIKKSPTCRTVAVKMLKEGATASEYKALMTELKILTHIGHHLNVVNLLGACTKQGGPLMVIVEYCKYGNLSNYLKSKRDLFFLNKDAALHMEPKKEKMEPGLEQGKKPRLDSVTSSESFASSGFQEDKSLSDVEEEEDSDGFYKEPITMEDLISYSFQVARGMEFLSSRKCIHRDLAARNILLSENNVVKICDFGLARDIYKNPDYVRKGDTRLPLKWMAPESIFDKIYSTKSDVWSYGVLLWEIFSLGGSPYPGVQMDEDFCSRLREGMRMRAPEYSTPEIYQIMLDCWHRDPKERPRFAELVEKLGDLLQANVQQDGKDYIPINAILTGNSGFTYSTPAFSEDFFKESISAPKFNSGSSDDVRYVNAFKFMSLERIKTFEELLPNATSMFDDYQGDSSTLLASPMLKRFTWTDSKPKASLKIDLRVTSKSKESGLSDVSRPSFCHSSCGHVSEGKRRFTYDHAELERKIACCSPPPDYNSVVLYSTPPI

Sequence of MELK(h) (Q14680 1-340 limits assumed): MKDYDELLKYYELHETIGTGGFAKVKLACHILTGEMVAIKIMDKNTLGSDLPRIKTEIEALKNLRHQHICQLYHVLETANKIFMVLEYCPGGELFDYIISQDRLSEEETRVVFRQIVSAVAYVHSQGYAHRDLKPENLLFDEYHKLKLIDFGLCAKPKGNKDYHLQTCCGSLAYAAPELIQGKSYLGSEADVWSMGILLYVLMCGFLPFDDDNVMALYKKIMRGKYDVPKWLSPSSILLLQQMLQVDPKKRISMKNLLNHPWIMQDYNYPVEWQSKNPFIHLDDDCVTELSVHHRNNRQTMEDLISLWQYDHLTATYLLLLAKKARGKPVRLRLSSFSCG
Sequence of EphA7(h) (Q15375 577-998 limits assumed): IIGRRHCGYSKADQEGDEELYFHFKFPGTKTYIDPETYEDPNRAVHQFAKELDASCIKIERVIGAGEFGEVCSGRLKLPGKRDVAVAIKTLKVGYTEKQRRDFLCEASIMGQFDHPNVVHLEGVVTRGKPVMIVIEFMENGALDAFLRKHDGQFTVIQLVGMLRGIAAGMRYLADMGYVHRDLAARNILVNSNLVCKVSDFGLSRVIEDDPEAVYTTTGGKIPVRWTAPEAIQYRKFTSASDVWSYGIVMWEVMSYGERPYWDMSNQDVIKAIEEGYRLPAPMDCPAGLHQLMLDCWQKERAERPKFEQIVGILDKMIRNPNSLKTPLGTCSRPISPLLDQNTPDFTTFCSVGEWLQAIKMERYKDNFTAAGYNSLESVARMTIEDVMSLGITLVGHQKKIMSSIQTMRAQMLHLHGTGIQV
Sequence of Ab1(Y253F)(h) (P00519 27-1130 Y253F limits assumed): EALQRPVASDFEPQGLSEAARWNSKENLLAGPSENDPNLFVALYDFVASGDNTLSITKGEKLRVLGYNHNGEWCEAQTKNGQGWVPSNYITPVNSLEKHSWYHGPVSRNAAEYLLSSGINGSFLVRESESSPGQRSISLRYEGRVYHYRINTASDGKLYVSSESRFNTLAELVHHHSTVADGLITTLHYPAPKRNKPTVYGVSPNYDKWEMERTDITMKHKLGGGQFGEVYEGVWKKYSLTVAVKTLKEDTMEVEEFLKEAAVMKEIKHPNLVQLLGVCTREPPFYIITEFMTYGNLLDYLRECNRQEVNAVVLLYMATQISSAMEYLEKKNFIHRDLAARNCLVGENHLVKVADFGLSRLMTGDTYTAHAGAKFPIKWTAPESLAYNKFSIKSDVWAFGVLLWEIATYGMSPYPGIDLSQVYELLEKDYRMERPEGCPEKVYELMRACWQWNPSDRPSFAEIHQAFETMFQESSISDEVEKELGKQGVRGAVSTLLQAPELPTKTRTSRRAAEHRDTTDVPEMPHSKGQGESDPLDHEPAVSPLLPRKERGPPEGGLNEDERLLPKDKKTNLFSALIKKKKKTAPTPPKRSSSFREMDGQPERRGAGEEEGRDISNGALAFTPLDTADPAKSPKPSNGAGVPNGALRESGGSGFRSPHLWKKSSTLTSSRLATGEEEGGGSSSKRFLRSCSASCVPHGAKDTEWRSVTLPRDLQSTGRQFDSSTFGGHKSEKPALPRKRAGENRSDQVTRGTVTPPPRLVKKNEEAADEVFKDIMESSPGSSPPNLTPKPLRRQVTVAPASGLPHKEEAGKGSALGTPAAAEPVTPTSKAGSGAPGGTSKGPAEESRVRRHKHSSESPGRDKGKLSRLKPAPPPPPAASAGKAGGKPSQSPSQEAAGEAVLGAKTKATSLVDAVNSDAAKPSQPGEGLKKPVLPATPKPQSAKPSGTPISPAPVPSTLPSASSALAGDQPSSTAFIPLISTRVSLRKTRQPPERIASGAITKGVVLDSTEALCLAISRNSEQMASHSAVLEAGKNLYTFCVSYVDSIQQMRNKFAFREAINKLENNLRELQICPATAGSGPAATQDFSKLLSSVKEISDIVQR
Sequence of MSSK1(h) (Q9UPE1 whole entry): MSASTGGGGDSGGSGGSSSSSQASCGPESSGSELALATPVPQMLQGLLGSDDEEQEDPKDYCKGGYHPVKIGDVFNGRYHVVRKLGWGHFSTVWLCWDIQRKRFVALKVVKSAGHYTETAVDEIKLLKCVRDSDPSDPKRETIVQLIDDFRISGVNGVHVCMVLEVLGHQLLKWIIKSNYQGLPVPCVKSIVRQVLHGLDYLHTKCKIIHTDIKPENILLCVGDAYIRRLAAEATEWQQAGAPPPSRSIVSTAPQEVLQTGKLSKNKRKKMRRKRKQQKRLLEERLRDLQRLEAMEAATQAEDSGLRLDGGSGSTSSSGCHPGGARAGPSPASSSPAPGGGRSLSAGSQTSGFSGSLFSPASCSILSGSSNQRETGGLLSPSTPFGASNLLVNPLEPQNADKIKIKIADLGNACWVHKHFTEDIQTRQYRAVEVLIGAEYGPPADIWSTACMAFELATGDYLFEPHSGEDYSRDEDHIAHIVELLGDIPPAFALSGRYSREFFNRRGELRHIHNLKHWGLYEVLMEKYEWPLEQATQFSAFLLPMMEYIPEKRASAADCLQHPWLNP
Sequence of Lck(h) activated (P06239 whole entry): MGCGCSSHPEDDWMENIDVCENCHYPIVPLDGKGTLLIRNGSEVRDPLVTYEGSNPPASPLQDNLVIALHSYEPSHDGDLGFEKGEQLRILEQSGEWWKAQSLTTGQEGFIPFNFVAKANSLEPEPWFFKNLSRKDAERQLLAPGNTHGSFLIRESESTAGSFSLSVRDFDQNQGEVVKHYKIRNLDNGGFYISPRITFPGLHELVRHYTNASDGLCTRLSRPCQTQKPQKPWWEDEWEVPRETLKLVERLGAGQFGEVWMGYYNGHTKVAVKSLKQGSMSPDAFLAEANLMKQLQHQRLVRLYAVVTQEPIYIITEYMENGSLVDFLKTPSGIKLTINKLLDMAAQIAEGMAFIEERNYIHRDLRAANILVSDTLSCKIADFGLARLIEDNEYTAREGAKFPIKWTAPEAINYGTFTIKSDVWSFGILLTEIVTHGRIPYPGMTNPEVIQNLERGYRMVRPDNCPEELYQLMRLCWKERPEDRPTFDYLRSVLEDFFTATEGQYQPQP
Sequence of CDK6/cyclinD3(h) (Q00534 whole entry, chain 1 of 2): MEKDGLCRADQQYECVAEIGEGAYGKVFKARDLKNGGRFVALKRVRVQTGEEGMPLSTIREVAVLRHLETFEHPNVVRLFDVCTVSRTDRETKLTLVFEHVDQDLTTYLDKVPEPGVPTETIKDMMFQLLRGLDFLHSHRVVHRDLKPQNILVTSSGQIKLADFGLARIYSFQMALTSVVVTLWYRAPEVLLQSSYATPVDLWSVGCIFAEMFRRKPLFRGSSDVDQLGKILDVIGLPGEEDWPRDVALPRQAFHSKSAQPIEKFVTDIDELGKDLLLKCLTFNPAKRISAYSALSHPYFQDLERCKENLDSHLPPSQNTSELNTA
Sequence of CDK6/cyclinD3(h) (P30281 whole entry, chain 2 of 2): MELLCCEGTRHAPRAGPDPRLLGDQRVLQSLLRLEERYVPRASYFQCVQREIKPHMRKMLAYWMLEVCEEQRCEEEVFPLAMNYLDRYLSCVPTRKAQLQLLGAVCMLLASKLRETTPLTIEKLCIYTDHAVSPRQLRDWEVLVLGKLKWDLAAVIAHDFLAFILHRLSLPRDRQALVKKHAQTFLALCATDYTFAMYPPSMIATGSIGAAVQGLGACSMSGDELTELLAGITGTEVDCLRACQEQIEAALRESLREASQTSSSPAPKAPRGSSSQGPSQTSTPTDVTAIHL
Sequence of MSK2(h) (O75676 whole entry): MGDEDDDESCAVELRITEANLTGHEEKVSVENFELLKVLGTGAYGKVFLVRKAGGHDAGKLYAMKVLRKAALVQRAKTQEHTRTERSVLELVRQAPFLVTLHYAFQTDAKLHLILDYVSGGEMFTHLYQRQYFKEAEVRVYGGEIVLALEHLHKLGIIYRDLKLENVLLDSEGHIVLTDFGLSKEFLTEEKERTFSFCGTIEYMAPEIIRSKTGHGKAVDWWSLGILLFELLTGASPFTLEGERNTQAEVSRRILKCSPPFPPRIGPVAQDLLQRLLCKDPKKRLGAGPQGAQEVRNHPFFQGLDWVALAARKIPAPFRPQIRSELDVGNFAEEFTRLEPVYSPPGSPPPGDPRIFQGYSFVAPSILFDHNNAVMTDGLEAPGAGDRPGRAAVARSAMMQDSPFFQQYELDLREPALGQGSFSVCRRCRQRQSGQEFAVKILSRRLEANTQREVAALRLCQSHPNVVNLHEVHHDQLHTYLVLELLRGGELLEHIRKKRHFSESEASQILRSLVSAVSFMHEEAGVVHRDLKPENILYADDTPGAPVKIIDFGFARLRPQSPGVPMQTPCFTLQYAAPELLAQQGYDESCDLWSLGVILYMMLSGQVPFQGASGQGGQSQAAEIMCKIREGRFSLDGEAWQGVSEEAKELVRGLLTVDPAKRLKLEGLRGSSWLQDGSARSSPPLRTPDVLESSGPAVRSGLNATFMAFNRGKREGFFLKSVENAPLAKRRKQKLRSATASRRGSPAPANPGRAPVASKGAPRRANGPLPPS
Sequence of ROCK-II(h) (O75116 11-552 limits assumed): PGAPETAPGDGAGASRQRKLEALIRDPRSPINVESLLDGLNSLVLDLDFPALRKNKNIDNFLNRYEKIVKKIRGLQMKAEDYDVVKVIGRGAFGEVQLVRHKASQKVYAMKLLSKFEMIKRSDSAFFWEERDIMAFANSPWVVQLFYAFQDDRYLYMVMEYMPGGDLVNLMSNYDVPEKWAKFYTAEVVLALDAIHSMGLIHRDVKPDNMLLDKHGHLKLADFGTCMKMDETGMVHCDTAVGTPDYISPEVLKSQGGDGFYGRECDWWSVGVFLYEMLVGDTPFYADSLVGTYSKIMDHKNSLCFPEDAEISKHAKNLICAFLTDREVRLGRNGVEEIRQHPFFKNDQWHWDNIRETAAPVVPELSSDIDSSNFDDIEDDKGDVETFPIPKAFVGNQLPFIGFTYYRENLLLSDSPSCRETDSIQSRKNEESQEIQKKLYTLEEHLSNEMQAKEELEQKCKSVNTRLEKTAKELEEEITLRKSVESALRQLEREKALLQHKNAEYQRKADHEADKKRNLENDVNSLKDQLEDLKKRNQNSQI

Turning to FAKLAARLYRKALARQLGVAA [MMI-0300], the “% activity” value with Lck(h) activated is 243%; with PRAK(h), 128%; in the test with MSK2(h), 56%; in the test with DCAMKL2(h), 81%; with Ab1(Y253F)(h), 86%; with EphA7(h), 159%. Besides, the “% activity” value stood at 24% in the test with Syk(h); 86% in the test with CDK6/cyclinD3(h); 74% in the test with ROCK-II(h); 77% in the test with MSSK1(h); 16% with MELK(h); 83% in the test with BrSK2(h). Further, the “% activity” value with Flt1(h) was 69%.
As to KAFAKLAARLYRKALARQLGVAA [MMI-0400], the “% activity” value is 216% with Lck(h) activated; 118% with PRAK(h); 52% with MSK2(h); 70% with DCAMKL2(h); 78% in the test with Ab1(Y253F)(h); 222% with EphA7(h). Besides, the “% activity” value with Syk(h) worked out at 9%; with CDK6/cyclinD3(h), 85%; with ROCK-II(h), 77%; in the test with MSSK1(h), 75%; in the test with MELK(h), 17%; with BrSK2(h), 86%. Besides, the “% activity” value with Flt1(h) stood at 48%.
